Reference: article PMC11447847
Where two headings read alike, the source gives them in different places.

How the values were obtained:
TDP43 RRM1 [1] = target: T1, TDP43 RRM1 (UniProt Q13148 101-192); assay: CG-MALS
CELF1 RRM1-2 [2] = target: T2, CELF1 RRM1-2 (UniProt Q92879 1-187); assay: CG-MALS
TDP43 RRM1 [3] = target: T1, TDP43 RRM1; assay: CG-MALS; remark: listed apart in the source
CELF1 RRM1-2 [4] = target: T2, CELF1 RRM1-2; assay: EMSA

T1 sequence (Q13148 101-192): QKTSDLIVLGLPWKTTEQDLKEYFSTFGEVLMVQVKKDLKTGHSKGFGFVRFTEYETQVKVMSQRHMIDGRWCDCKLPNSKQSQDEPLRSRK
T2 sequence (Q92879 1-187): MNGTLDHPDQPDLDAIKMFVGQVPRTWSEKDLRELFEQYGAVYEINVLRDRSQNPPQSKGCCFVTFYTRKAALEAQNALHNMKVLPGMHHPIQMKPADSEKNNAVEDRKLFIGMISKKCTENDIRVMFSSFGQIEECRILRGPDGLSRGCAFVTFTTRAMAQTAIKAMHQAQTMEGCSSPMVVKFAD

Binder: GTGTGTGTGTGTGTGTGTGTGTGT (ssDNA) [(GT)12 ssDNA]
- Kd (TDP43 RRM1 [1]): 1340 ± 120 nM

Binder: GUGUGUGUGUGUGUGUGUGUGUGUGUGUGUGUGUGUGUGUGUGU (ssRNA) [(GU)22 ssRNA]
- Kd (CELF1 RRM1-2 [2]): 390 ± 30 nM

Binder: TGTGTGTGTGTG (ssDNA) [(TG)6 ssDNA]
- Kd (TDP43 RRM1 [3]): 10400 ± 3200 nM

Binder: UGUUUGUUUGUUUGUU (ssRNA) [(UGUU)4 ssRNA]
- binding result (CELF1 RRM1-2 [4]): binds
